pKd: −log10 of the molar value.
Tests used:
[1] = target: TCTP (translationally controlled tumor protein) (human) (UniProt P13693); assay: SPR; Biacore 2000; TCTP amine-coupled on CM5 chip (697 RU); DDX3 injected in two-fold dilutions 0.195 to 100 nM, 30 ul/min; HBS-EP (10 mM HEPES pH 7.2, 150 mM NaCl, 3 mM EDTA, 0.005% Tween 20); 25 C; global Langmuir binding with drifting baseline
[2] = target: TCTP (translationally controlled tumor protein) (human) (UniProt P13693); assay: SPR; positive control for the SPR experiments; who was immobilised and the conditions are not told for TSAP6 (Appendix Fig. S2); also run with sertraline and thioridazine

Chain of TCTP (translationally controlled tumor protein) (human) (P13693 whole entry): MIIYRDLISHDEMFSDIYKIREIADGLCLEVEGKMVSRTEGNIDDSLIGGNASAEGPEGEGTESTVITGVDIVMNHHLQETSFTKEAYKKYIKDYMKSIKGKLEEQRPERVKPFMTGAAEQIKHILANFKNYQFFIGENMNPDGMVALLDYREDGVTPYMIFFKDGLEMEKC

| Substance | pKd [1] | pKd [2] |
| --- | --- | --- |
| DDX3 wild-type (from UniProt O00571 1-662) | 7.16 |  |
| TSAP6 (Tumor Suppressor Activated Protein) (from UniProt Q658P3 1-488) (natural protein) |  | 6.00 |

Reference: article PMC11014985, “TCTP regulates genotoxic stress and tumorigenicity via intercellular vesicular signaling” (EMBO Reports, 2024)
